In paper PMC8812556 (Proceedings of the National Academy of Sciences of the …, 2022):
One block for each molecule: values may come before it.

Columns and labels:
[1] = target: BiP double-mutant G518C and Y636C labelled with AlexaFluor 555 and AlexaFluor 647 (UniProt P20029); test: other fluorescence titration
[2] = target: FITC-labeled BiP-NBD (D27C variant) (UniProt P20029); test: fluorescence polarisation
cross-linking = target: the molecule itself; test: cross-linking

Kd [1]: 130 nM
Molecule: Mouse E-peptide containing an N-terminal six-histidine tag and S95C mutation (domain or fragment)

fold affinity enhancement versus wild-type Grp94 [2]: 50 fold
Molecule: M86C cross-linked Grp94 (from UniProt P08113 72-765) (natural protein)

Kd [2]: 950 nM
Molecule: Wild-type mouse Grp94 (72 to 765) (from UniProt P08113 72-765) (natural protein)

B1: Grp94 M86C (natural protein, mouse, UniProt P08113 72-765, looked up)
chain: KSEKFAFQAEVNRMCKLIINSLYKNKEIFLRELISNASDALDKIRLISLTDENALAGNEELTVKIKCDKEKNLLHVTDTGVGMTREELVKNLGTIAKSGTSEFLNKMTEAQEDGQSTSELIGQFGVGFYSAFLVADKVIVTSKHNNDTQHIWESDSNEFSVIADPRGNTLGRGTTITLVLKEEASDYLELDTIKNLVRKYSQFINFPIYVWSSKTETVEEPLEEDEAAKEEKEESDDEAAVEEEEEEKKPKTKKVEKTVWDWELMNDIKPIWQRPSKEVEEDEYKAFYKSFSKESDDPMAYIHFTAEGEVTFKSILFVPTSAPRGLFDEYGSKKSDYIKLYVRRVFITDDFHDMMPKYLNFVKGVVDSDDLPLNVSRETLQQHKLLKVIRKKLVRKTLDMIKKIADEKYNDTFWKEFGTNIKLGVIEDHSNRTRLAKLLRFQSSHHSTDITSLDQYVERMKEKQDKIYFMAGSSRKEAESSPFVERLLKKGYEVIYLTEPVDEYCIQALPEFDGKRFQNVAKEGVKFDESEKTKESREATEKEFEPLLNWMKDKALKDKIEKAVVSQRLTESPCALVASQYGWSGNMERIMKAQAYQTGKDISTNYYASQKKTFEINPRHPLIRDMLRRIKEDEDDKTVMDLAVVLFETATLRSGYLLPDTKAYGDRIERMLRLSLNIDPEAQVEEEPEEEPED
binding result (cross-linking): binds
